From publication PMC12125552

Key:
[1] = biological target: DdMyo7 long heavy meromyosin (lnHMM), FLAG-tagged (Dictyostelium); assay: co-IP; lnHMM (FLAG) precipitated with anti-Flag beads from a MgATP-released, myosin-enriched cytoskeletal fraction of talA null cells; washed in Flag buffer (25 mM Hepes pH 7.4, 300 mM NaCl, 10 mM MgCl2 and 5 mM EGTA, or 2 mM CaCl2); eluted with Flag peptide; gel stained with Coomassie or Sypro Ruby, densitometry normalised to molecular weights; lower band identified by mass spectrometry
[2] = biological target: DdMyo7 short heavy meromyosin forced-dimer GFP (shHMM-FD-GFP) (Dictyostelium | not stated)
[3] = biological target: DdMyo7 short heavy meromyosin forced-dimer GFP (shHMM-FD-GFP) (Dictyostelium | not stated); assay: co-IP; as a2, but the resin washed in IP wash buffer + 2 mM CaCl2 (+Ca2+); immunoblot signal normalised for gel load and heavy chain abundance

Sequence of DdMyo7 long heavy meromyosin (lnHMM), FLAG-tagged (Dictyostelium) (Q9U1M8 686-725): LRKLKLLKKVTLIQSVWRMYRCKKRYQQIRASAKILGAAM

Row | Substance | stoichiometry N [1] | velocity of shHMM-FD on F-actin (TIRF motility assay) with 100 μM free Ca2+, against 40.7 nm/s without Ca2+ [2] | reduction of immunoblot signal with Ca2+ [3]
1 | Dictyostelium CaM-like protein CalB (natural protein) | 2.01 CalB per HC | 23.6 nm/s | 
2 | FLAG-CalB (natural protein) |  |  | 75.1%
